Reference: paper PMC6697062

Tests used:
[1] = target: C5A + K40 one-armed SEEDbody; assay: BLI; oaSEEDbody on anti-human Fc (AHC) tips; association with 100 nM CEACAM5 at pH 7.4, dissociation at pH 7.4 in kinetic buffer (PBS, 0.1% Tween 20, 1% BSA); 30 C; 1:1 model
[2] = target: C5A + CV1 one-armed SEEDbody; assay: as above
[3] = target: C5A + CV3 one-armed SEEDbody; assay: as above
[4] = target: C5A + IGKV3-15*01 one-armed SEEDbody; assay: as above
[5] = target: C5A + CV2 one-armed SEEDbody; assay: as above
[6] = target: C5A + K39 one-armed SEEDbody; assay: as above
[7] = target: C6B/CV2 one-armed SEEDbody; assay: BLI; C6B oaSEEDbody on anti-Fab tips; association with 100 nM CEACAM6 at pH 7.4, dissociation at pH 6.0
[8] = target: C6B/IGKV3-15*01 one-armed SEEDbody; assay: as above
[9] = target: C6B/CV2 one-armed SEEDbody; assay: BLI; C6B oaSEEDbody on anti-Fab tips; association with 100 nM CEACAM6 at pH 7.4, dissociation at pH 7.4; 1:1 model
[10] = target: C6B/IGKV3-15*01 one-armed SEEDbody; assay: as above
[11] = target: C6B/CV2 one-armed SEEDbody; assay: BLI; C6B oaSEEDbody on anti-Fab tips; association with 100 nM CEACAM6 at pH 7.4, dissociation at pH 5.0
[12] = target: C6B/IGKV3-15*01 one-armed SEEDbody; assay: as above

CEACAM6, sequence (P40199 35-320): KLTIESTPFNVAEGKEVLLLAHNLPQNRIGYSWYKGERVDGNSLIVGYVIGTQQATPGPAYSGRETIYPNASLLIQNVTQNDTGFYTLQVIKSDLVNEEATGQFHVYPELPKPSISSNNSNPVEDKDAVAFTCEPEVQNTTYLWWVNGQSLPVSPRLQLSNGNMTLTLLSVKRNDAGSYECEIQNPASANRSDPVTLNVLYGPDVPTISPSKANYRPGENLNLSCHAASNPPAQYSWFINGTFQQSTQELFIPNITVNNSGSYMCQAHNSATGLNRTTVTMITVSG

Substance	Kd [1]	Kd [2]	Kd [3]	Kd [4]	Kd [5]	Kd [6]	koff [7]	koff [8]	Kd [9]	koff [9]	Kd [10]	koff [10]	koff [11]	koff [12]
recombinant human His-tagged CEACAM5 (from UniProt P06731 35-685) (natural protein)	3.12 nM	4.11 nM	2.55 nM	0.9 nM	4.14 nM	4.16 nM	–	–	–	–	–	–	–	–
CEACAM6 (from UniProt P40199 35-320) (natural protein)	–	–	–	–	–	–	0.000142 s⁻¹	0.00019 s⁻¹	7.73 nM	0.000262 s⁻¹	8.77 nM	0.000158 s⁻¹	0.000768 s⁻¹	0.000361 s⁻¹
